Test results: article PMC2674315 (Biochemistry, 2008)

B1: Sam domain of the EphA2 receptor (domain or fragment, human, UniProt P29317 901-976, looked up)
chain: SEGVPFRTVSEWLESIKMQQYTEHFMAAGYTAIEKVVQMTNDDIKRIGVRLPGHQKRIAYSLLGLKDQVNTVGIPI
B2: Sam domain of Ship2 (Src homology 2 domain-containing phosphoinositide-5-phosphatase 2) (domain or fragment, human, UniProt O15357 1194-1258, looked up)
chain: SGLGEAGMSAWLRAIGLERYEEGLVHNGWDDLEFLSDITEEDLEEAGVQDPAHKRLLLDTLQLSK

Legend:
[1] = biological target: Sam domain of Ship2 (Src homology 2 domain-containing phosphoinositide-5-phosphatase 2) (human) (UniProt O15357); test: AUC
[2] = biological target: Arap3-Sam Sam (Homo sapiens) (UniProt Q8WWN8); test: ITC; conditions: cited from earlier work
Chain of Arap3-Sam Sam (Homo sapiens) (Q8WWN8 1-71): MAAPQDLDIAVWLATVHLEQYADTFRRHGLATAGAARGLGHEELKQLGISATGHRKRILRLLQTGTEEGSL

[3] = biological target: B2; test: ITC
[4] = biological target: T1, EphA2-Sam double mutant (H924N, R950A) (human, UniProt P29317 901-976, H924N | R950A); test: ITC
T1 sequence (looked up): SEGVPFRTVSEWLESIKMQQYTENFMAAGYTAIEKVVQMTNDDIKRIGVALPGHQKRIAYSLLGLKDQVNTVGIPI

[5] = biological target: B1; test: ITC
[6] = biological target: T2, Sam domain of the EphA2 receptor, polyHis-tag cut with thrombin (human, UniProt P29317 901-976); test: ITC
T2 sequence (looked up): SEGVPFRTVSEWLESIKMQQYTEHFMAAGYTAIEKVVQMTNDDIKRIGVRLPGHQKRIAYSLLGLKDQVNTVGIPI

Molecule: Sam domain of Ship2 (Src homology 2 domain-containing phosphoinositide-5-phosphatase 2) (from UniProt O15357 1194-1258) (domain or fragment)
- Kd [1]: 2000 µM

Molecule: Ship2-Sam Sam (from UniProt O15357)
- Kd [2]: 0.1 µM

Molecule: B1
- stoichiometry N [3]: 1

Molecule: B2
- Kd [4]: 1.8 ± 0.6 µM
- Kd [5]: 0.75 ± 0.12 µM

Molecule: Ac-EGLVHNGWDDLEFLSDITEEDL-NH2 [Shiptide (minimal peptide region of Ship2-Sam)]
- Kd [6]: 19 ± 3 µM
